# Laboratory results published in paper PMC3272479 (Nature structural & molecular biology, 2012).
# Target: the molecule itself
# Experiment: crystal structure
protein,measurement,value
KirBac3.1 S129R mutant channel (natural protein) MTGGMKPPARKPRILNSDGSSNITRLGLEKRGWLDDHYHDLLTVSWPVFITLITGLYLVTNALFALAYLACGDVIENARPGSFTDAFFFSVQTMATIGYGKLIPIGPLANTLVTLEALCGMLGLAVAARLIYARFTRPTAGVLFSSRMVISDFEGKPTLMMRLANLRIEQIIEADVHLVLVRSEISQEGMVFRRFHDLTLTRSRSPIFSLSWTVMHPIDHHSPIYGETDETLRNSHSEFLVLFTGHHEAFAQNVHARHAYSCDEIIWGGHFVDVFTTLPDGRRALDLGKFHEIAQ,stoichiometry N,4
